For assay [1], the target named is T1, 006 PSMA Fab.
T1 construct: also called Anti-PSMA Fab
The assay can be described thus: clonal phage ELISA; biotinylated PSMA Fab on neutravidin plate, bound phage detected with anti-M13-HRP. A general note: In an ELISA, binding on a coated surface is turned into a signal by an enzyme label.
Description: (§1) Clonal phage were harvested as crude supernatants and screened via standard ELISAs. […] Prior to the addition of clonal phage. wells were incubated with blocking buffer and PSMA antigen or blocking buffer alone. Without washing or aspirating, clonal phage supernatants were then added to the wells and incubated for a short time. Wells were then washed followed by detection of bound phage using a horse radish conjugated anti-M13 antibody.

The target in assay [2] is T1, 006 PSMA Fab. The assay can be described thus: clonal phage ELISA; biotinylated PSMA Fab on neutravidin plate, PSMA antigen as competitor, anti-M13-HRP.
Description: as §1
Assay [3] has as its target T2, PSMA Fab.
T2 construct: Used biotinylated and captured on neutravidin plates in the phage ELISA; also called Anti-PSMA Fab; 006 PSMA Fab
The assay can be described thus: phage ELISA; biotinylated PSMA Fab on neutravidin plate, blocking buffer alone; bound phage detected with anti-M13-HRP.
Description: as §1

Assay [4] concerns the target T2, PSMA Fab. The assay can be described thus: phage ELISA; biotinylated PSMA Fab on neutravidin plate, pre-incubated with PSMA antigen as competitor; anti-M13-HRP.
Description: as §1
Assay [5] concerns the target T3, PSMA Fab (SEQ ID NOs: 19, 20).
T3 construct: also called 006 PSMA Fab; anti-PSMA Fab
Description: competition ELISA, peptide titrated against 0.3 nM PSMA Fab on captured biotinylated PSMA.
Description: The concentration of peptide required to reduce the maximum signal by 50% (IC₅₀) was calculated in Graphpad Prism software.

Where no end group is shown, it is not given here.

What is called IC50 is the concentration at which inhibition is half-maximal. High values mean lower potency, low ones higher potency.

For GTQACVPLWMCEGI [Phage-3996], the “Phage binding ELISA signal, Anti-PSMA Fab” value in the assay with 006 PSMA Fab [1] was found to be 0.62. Moreover, in the assay with 006 PSMA Fab [2], the “phage binding ELISA signal (Anti-PSMA Fab, wells pre-incubated with PSMA antigen)” value was 0.0787.

For VSHHCVPAWMCFGL (also called Peptide-180 library clone) [Phage-3737], the “Phage binding ELISA signal, Anti-PSMA Fab” value with PSMA Fab [3] is 1.39. Besides, in the assay with PSMA Fab [4], the “Phage binding ELISA signal, Anti-PSMA Fab in presence of PSMA antigen” value (shortened to “Phage binding ELISA signal … of PSMA antigen”) was found to be 0.0946.

As to PTSFCRPPWMCEGL [Phage-4007], the “Phage binding ELISA signal, Anti-PSMA Fab” value with 006 PSMA Fab [1] was found to be 0.475. In the assay with 006 PSMA Fab [2], the “phage binding ELISA signal (Anti-PSMA Fab, wells pre-incubated with PSMA antigen)” value was determined as 0.0592.

Molecule QLPCHYWGEWCPQA (cysteine pairing not given here; also: biotinylated (site not given here), PSMA peptide mask (P2)) [Peptide-195] had an IC50 in assay [5] of 19.3 µM.

Consider QEMTCVPRWMCSGF [Phage-4000], for which the “Phage binding ELISA signal, Anti-PSMA Fab” value with 006 PSMA Fab [1] was 0.566. Further, in the assay with 006 PSMA Fab [2], the “phage binding ELISA signal (Anti-PSMA Fab, wells pre-incubated with PSMA antigen)” value turned out to be 0.0832.

Regarding QMITCQPKWMCEGF [Phage-3998], in the assay with 006 PSMA Fab [1], the “Phage binding ELISA signal, Anti-PSMA Fab” value stood at 0.589. Moreover, in the assay with 006 PSMA Fab [2], the “phage binding ELISA signal (Anti-PSMA Fab, wells pre-incubated with PSMA antigen)” value turned out to be 0.0852.

As for QCTWNEKTWWMECE (cysteine pairing not given here; also: biotinylated (site not given here), PSMA peptide mask (P2)) [Peptide-204], the IC50 in assay [5] came out at 9.07 µM.

Take VQPWCVPAWMCDGL [Phage-3997]: the “Phage binding ELISA signal, Anti-PSMA Fab” value in the assay with 006 PSMA Fab [1] was 0.607. In addition, the “phage binding ELISA signal (Anti-PSMA Fab, wells pre-incubated with PSMA antigen)” value with 006 PSMA Fab [2] is 0.0983.

In turn, HCKFHDYHSWYVCY (cysteine pairing not given here; also: biotinylated, site not given here, PSMA peptide mask (P2)) [Peptide-212] showed an IC50 in assay [5] of 6.39 µM.

Regarding DCHWNKATWWMDCE (cysteine pairing not given here; also: biotinylated, site not given here, PSMA peptide mask (P2)) [Peptide-207], the IC50 in assay [5] worked out at 9.86 µM.

Consider ADVRCVPDWMCWGM (also called Peptide-180 library clone) [Phage-3733], for which the “Phage binding ELISA signal, Anti-PSMA Fab” value with PSMA Fab [3] worked out at 1.4. Moreover, the “Phage binding ELISA signal … of PSMA antigen” value with PSMA Fab [4] was 0.0602.

With ELPVCRPSWMCGGL (also called Peptide-180 library clone) [Phage-3734], the “Phage binding ELISA signal, Anti-PSMA Fab” value with PSMA Fab [3] worked out at 1.4. Besides, in the assay with PSMA Fab [4], the “Phage binding ELISA signal … of PSMA antigen” value is 0.0603.

In the case of ILPCHWYTSDCPQH (cysteine pairing not given here; also: biotinylated (site not given here), PSMA peptide mask (P2)) [Peptide-200], the IC50 in assay [5] came to 12.2 µM.

With LLLRCEPTWMCTGF (also called Peptide-180 library clone) [Phage-3740], the “Phage binding ELISA signal, Anti-PSMA Fab” value with PSMA Fab [3] was found to be 1.39. In addition, the “Phage binding ELISA signal … of PSMA antigen” value in the assay with PSMA Fab [4] turned out to be 0.0711.

With LTSWCVPQWMCDGL [Phage-4005], the “Phage binding ELISA signal, Anti-PSMA Fab” value with 006 PSMA Fab [1] turned out to be 0.523. The “phage binding ELISA signal (Anti-PSMA Fab, wells pre-incubated with PSMA antigen)” value with 006 PSMA Fab [2] was determined as 0.0623.

As to VQRVCVPTWMCDVF [Phage-3999], the “Phage binding ELISA signal, Anti-PSMA Fab” value with 006 PSMA Fab [1] was 0.584. Further, the “phage binding ELISA signal (Anti-PSMA Fab, wells pre-incubated with PSMA antigen)” value in the assay with 006 PSMA Fab [2] is 0.07.

VQPWCVPSWMCERF (also called Peptide-180 library clone) [Phage-3743]: the “Phage binding ELISA signal, Anti-PSMA Fab” value with PSMA Fab [3] worked out at 1.39. The “Phage binding ELISA signal … of PSMA antigen” value with PSMA Fab [4] amounted to 0.312.

Regarding QCVWDLTNYWMNCD (cysteine pairing not given here; also: biotinylated (site not given here), PSMA peptide mask (P2)) [Peptide-206], the IC50 in assay [5] worked out at 28.7 µM.

For the molecule VNRMCVPVWMCQGF (also called Peptide-180 library clone) [Phage-3739], the “Phage binding ELISA signal, Anti-PSMA Fab” value in the assay with PSMA Fab [3] was determined as 1.39. In addition, the “Phage binding ELISA signal … of PSMA antigen” value in the assay with PSMA Fab [4] was 0.0729.

HSVHCVPMWMCTGF (also called Peptide-180 library clone) [Phage-3738]: in the assay with PSMA Fab [3], the “Phage binding ELISA signal, Anti-PSMA Fab” value worked out at 1.39. In addition, in the assay with PSMA Fab [4], the “Phage binding ELISA signal … of PSMA antigen” value is 0.0781.

Turning to IMQRCEPLWMCSGL [Phage-4008], the “Phage binding ELISA signal, Anti-PSMA Fab” value with 006 PSMA Fab [1] stood at 0.471. In addition, in the assay with 006 PSMA Fab [2], the “phage binding ELISA signal (Anti-PSMA Fab, wells pre-incubated with PSMA antigen)” value was 0.0777.

As to WTPLCKPLWMCQGL (also called Peptide-180 library clone) [Phage-3741], the “Phage binding ELISA signal, Anti-PSMA Fab” value in the assay with PSMA Fab [3] was 1.39. Also, in the assay with PSMA Fab [4], the “Phage binding ELISA signal … of PSMA antigen” value was found to be 0.16.

DIEVCRPHWMCEGF [Phage-4003]: the “Phage binding ELISA signal, Anti-PSMA Fab” value in the assay with 006 PSMA Fab [1] is 0.542. Further, the “phage binding ELISA signal (Anti-PSMA Fab, wells pre-incubated with PSMA antigen)” value with 006 PSMA Fab [2] was determined as 0.0801.

Turning to MDVWCVPTWMCQHL [Phage-3995], the “Phage binding ELISA signal, Anti-PSMA Fab” value with 006 PSMA Fab [1] is 0.627. Further, the “phage binding ELISA signal (Anti-PSMA Fab, wells pre-incubated with PSMA antigen)” value with 006 PSMA Fab [2] is 0.119.

For the molecule HVTMCSPNWMCWGL [Phage-4006], the “Phage binding ELISA signal, Anti-PSMA Fab” value with 006 PSMA Fab [1] turned out to be 0.485. The “phage binding ELISA signal (Anti-PSMA Fab, wells pre-incubated with PSMA antigen)” value with 006 PSMA Fab [2] worked out at 0.0703.

Consider DGLICQPSWMCTGL [Phage-4001], for which the “Phage binding ELISA signal, Anti-PSMA Fab” value with 006 PSMA Fab [1] was determined as 0.554. In addition, the “phage binding ELISA signal (Anti-PSMA Fab, wells pre-incubated with PSMA antigen)” value with 006 PSMA Fab [2] was 0.0705.

Consider QCVWDRGTWWMACD (cysteine pairing not given here; also: biotinylated, site not given here, PSMA peptide mask (P2)) [Peptide-209], for which the IC50 in assay [5] turned out to be 10.2 µM.

Take GPKLCLPMWMCQGF [Phage-4009]: the “Phage binding ELISA signal, Anti-PSMA Fab” value in the assay with 006 PSMA Fab [1] is 0.459. In the assay with 006 PSMA Fab [2], the “phage binding ELISA signal (Anti-PSMA Fab, wells pre-incubated with PSMA antigen)” value was 0.0611.

Turning to YSISCVPQWMCEGF (also called Peptide-180 library clone) [Phage-3742], the “Phage binding ELISA signal, Anti-PSMA Fab” value with PSMA Fab [3] is 1.39. Further, the “Phage binding ELISA signal … of PSMA antigen” value with PSMA Fab [4] came to 0.0591.

Consider QVKYCIPEWMCSSF (also called Peptide-180 library clone) [Phage-3735], for which the “Phage binding ELISA signal, Anti-PSMA Fab” value with PSMA Fab [3] amounted to 1.4. Also, the “Phage binding ELISA signal … of PSMA antigen” value with PSMA Fab [4] amounted to 0.0671.

Consider TGMACVPWWMCEGF (also called Peptide-180 library clone) [Phage-3732], for which the “Phage binding ELISA signal, Anti-PSMA Fab” value with PSMA Fab [3] was 1.4. In the assay with PSMA Fab [4], the “Phage binding ELISA signal … of PSMA antigen” value is 0.0812.

In turn, LTRCVPDWMCYRAV (cysteine pairing not given here; also: biotinylated (site not given here), PSMA peptide mask (P2)) [Peptide-198] returned an IC50 in assay [5] of 18.9 µM.

Regarding MTNMCRPSWMCAVF [Phage-4002], the “Phage binding ELISA signal, Anti-PSMA Fab” value in the assay with 006 PSMA Fab [1] is 0.551. Further, the “phage binding ELISA signal (Anti-PSMA Fab, wells pre-incubated with PSMA antigen)” value with 006 PSMA Fab [2] was 0.108.

Molecule SKLLCVPPWMCYHV (cysteine pairing not given here; also: biotinylated (site not given here), PSMA peptide mask (P2)) [Peptide-194] returned an IC50 in assay [5] of 10.3 µM.

Take QCVWDNFNYWMDCD (cysteine pairing not given here; also: biotinylated (site not given here), PSMA peptide mask (P2)) [Peptide-203]: the IC50 in assay [5] stood at 36.1 µM.

EVKKCVPAWMCESQ [Phage-4004]: in the assay with 006 PSMA Fab [1], the “Phage binding ELISA signal, Anti-PSMA Fab” value is 0.542. Further, in the assay with 006 PSMA Fab [2], the “phage binding ELISA signal (Anti-PSMA Fab, wells pre-incubated with PSMA antigen)” value was 0.0538.

For MCQWDELNYWMDCD (cysteine pairing not given here; also: biotinylated (site not given here), PSMA peptide mask (P2)) [Peptide-202], the IC50 in assay [5] turned out to be 11 µM.

In assay [5], MCQWDKINYWMDCD (cysteine pairing not given here; also: biotinylated (site not given here), PSMA peptide mask (P2)) [Peptide-205] had a half-inhibitory concentration (IC50) of 5.52 µM.

As for FTAQCVPLWMCLGF (also called Peptide-180 library clone) [Phage-3736], in the assay with PSMA Fab [3], the “Phage binding ELISA signal, Anti-PSMA Fab” value came to 1.39. Further, the “Phage binding ELISA signal … of PSMA antigen” value in the assay with PSMA Fab [4] turned out to be 0.0789.

These data come from patent US20260242478A1 (published 2026).
